Each block holds one substance with its values, some of them ahead of it.
Tests used:
[1] = target: IGF-1 receptor (in transfected mouse embryonic fibroblasts R+39) (human) (UniProt P08069)
[2] = target: IGF-1 receptor (in transfected mouse embryonic fibroblasts R+39) (human) (UniProt P08069); test: radioligand binding; whole-cell receptor-binding assay on IGF-1R null mouse embryonic fibroblasts stably transfected with human IGF-1R; each binding curve in duplicate, Kd from at least three curves; details in the supporting information
[3] = target: insulin receptor isoform A (human (endogenous in IM-9)) (UniProt P06213); test: radioligand binding; whole-cell receptor-binding assay on human IM-9 lymphocytes (containing IR-A); each binding curve in duplicate, Kd from at least three curves; details in the supporting information
[4] = target: insulin receptor isoform B (human) (UniProt P06213); test: radioligand binding; whole-cell receptor-binding assay on IGF-1R null mouse embryonic fibroblasts stably transfected with human IR-B; each binding curve in duplicate, Kd from at least three curves; details in the supporting information
[5] = target: human insulin receptor isoform A (IR-A) on IM-9 lymphocytes (human (endogenous in IM-9)) (UniProt P06213); test: radioligand binding; association kinetics; IM-9 cells (10^7/mL) in HEPES binding buffer pH 7.6 with about 0.03 nM 125I-labelled ligand at 15 °C; cells pelleted at time points; fit: association kinetics, one concentration of hot (GraphPad Prism 5) with the dissociation rate set; apparent constants
[6] = target: human IGF-1 receptor (IGF-1R) on CHO-K1 cells stably transfected with pcDNA3-IGF-1R (human) (UniProt P08069); test: radioligand binding; association kinetics; CHO-R+ cells (10^7/mL) in HEPES binding buffer pH 7.6 with about 0.03 nM 125I-labelled ligand at 15 °C; cells pelleted at time points; fit: association kinetics, one concentration of hot (GraphPad Prism 5) with the dissociation rate set; apparent constants
[7] = target: human IGF-1 receptor (IGF-1R) on CHO-K1 cells stably transfected with pcDNA3-IGF-1R (human) (UniProt P08069); test: radioligand binding; dissociation kinetics without cold ligand; CHO-R+ cells (3x10^7/mL) preincubated with about 0.03 nM 125I-labelled ligand at 15 °C ([…] analog and IGF-1, 7 h insulin), washed, diluted 40 times, 15 °C; one phase exponential decay
[8] = target: human insulin receptor isoform A (IR-A) on IM-9 lymphocytes (human (endogenous in IM-9)) (UniProt P06213); test: radioligand binding; dissociation kinetics without cold ligand; IM-9 cells (3x10^7/mL) preincubated with about 0.03 nM 125I-labelled ligand at 15 °C ([…] insulin and analog, 4 h IGF-1), washed, diluted 40 times, 15 °C; one phase exponential decay

[Gly^B31, Tyr^B32]-insulin, sequence (P01308 90-110): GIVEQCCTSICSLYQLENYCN
[Gly^B31, Tyr^B32]-insulin, sequence (P01308 other isoform, or with tags, fused parts or gaps): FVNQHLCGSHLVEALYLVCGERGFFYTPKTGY

autophosphorylation of IGF-1R (immunoblot), IGF-1R-transfected mouse fibroblasts, 10 nM ligand, against insulin; not significant in the analysis of variance [1]: 3 fold
Substance: [Tyr^B25, Phe^B26, Asn^B27, Lys^B28, Pro^B29, Gly^B31, Tyr^B32]-insulin (from UniProt P01308 90-110) (ligand)

Kd [4]: 0.3 nM
Substance: [D-His^B24]-des-(B27-B30)-tetrapeptide-B26-carboxamide insulin (from UniProt P01308 90-110) (ligand)

Second part, the substance before the results:

Substance: [D-His^B24, Gly^B31, Tyr^B32]-insulin (from UniProt P01308 90-110) (ligand)
Kd [2]: 0.89 nM

Substance: human insulin-like growth factor 1 (from UniProt P05019 49-118) (ligand)
Kd [3]: 31.5 nM
Kd [4]: 224 nM

Substance: 125I-[D-HisB24, GlyB31, TyrB32]-insulin (ligand)
kon [5]: 5.87e+07 M⁻¹ s⁻¹
kon [6]: 7.83e+07 M⁻¹ s⁻¹
koff [7]: 0.000107 s⁻¹
koff [8]: 2.83e-05 s⁻¹

Substance: [Gly^B31, Tyr^B32]-insulin (from UniProt P01308 90-110; P01308 25-54) (ligand)
autophosphorylation of IGF-1R (immunoblot), IGF-1R-transfected mouse fibroblasts, 10 nM ligand, against insulin; not significant in the analysis of variance [1]: 3 fold

Substance: insulin-like growth factor 2 (from UniProt P01344 25-91) (ligand)
Kd [3]: 2.92 nM
Kd [2]: 2.32 nM
Kd [4]: 35.5 nM

From PMC6204900
